Experimental data as given in patent US8470574B2, “L-succinylaminoacylase and process for producing L-amino acid using it” (Toyo Boseki Kabushiki Kaisha, priority 2008, dated 2013).
Entries after “also recorded” stand apart in the source; their conditions may differ.

Experiments:
[1] = Effect of metal ion on N-succinylamino acid racemase activity; assay type: biochemical; details: final concentration of 0.1 mM to 1 M
Optimum pH of the enzyme = assay type: biochemical; details: reaction at 60° C. for 30 minutes
[2] = Synthesis of L-cyclohexylglycine from N-succinyl-L-cyclohexylglycine, TLC detection (Example 3); assay type: biochemical; details: TLC ninhydrin, as Example 2
Method: (§1) The reaction reagent containing the N-succinyl-L-amino acid as such was prepared by the same method as in the preparation of a reaction reagent containing N-succinyl-L-tert-leucine mentioned in (1).
(§2) The L-succinylaminoacylase (2.3 mg/mL, 0.5 mL) prepared in Example 1 was added to the reaction reagent (9.5 mL) containing the above N-succinyl-L-tert-leucine and, after the above was gently stirred, the reaction was conducted at 57° C. for 6 hours. As a control test, the same reaction was conducted by adding 50 mM K-phosphate buffer (pH 7.5) to the reagent mixture in place of the L-succinylaminoacylase solution. […]
(§3) N-Succinyl-L-valine, N-succinyl-L-phenylalanine, N-succinyl-L-tryptophan, N-succinyl-L-asparagine, N-succinyl-L-aspartic acid, N-succinyl-L-serine, N-succinyl-L-glutamic acid, N-succinyl-L-tert-leucine, N-succinyl-L-cyclohexylglycine or N-succinyl-L-4-bromophenylalanine is used as an N-succinyl-L-amino acid and a reaction reagent was prepared according to the method for the case of N-succinyl-L-tert-leucine. L-succinylaminoacylase of Example 1 was made to react using the resulting reaction reagent to synthesize an L-amino acid and the L-amino acid was directly detected by the same manner as in Example 2.

[3] = Synthesis of L-valine from N-succinyl-L-valine, TLC detection (Example 3); assay type: biochemical; details: TLC ninhydrin, as Example 2
Method: as §1, §2, §3

[4] = Synthesis of L-phenylalanine from N-succinyl-L-phenylalanine, TLC detection (Example 3); assay type: biochemical; details: TLC ninhydrin, as Example 2
Method: as §1, §2, §3

[5] = Synthesis of L-serine from N-succinyl-L-serine, TLC detection (Example 3); assay type: biochemical; details: TLC ninhydrin, as Example 2
Method: as §1, §2, §3

[6] = Activity to N-succinylamino acid compared with N-acetylamino acid; assay type: biochemical
[7] = Synthesis of L-aspartic acid from N-succinyl-L-aspartic acid, TLC detection (Example 3); assay type: biochemical; details: TLC ninhydrin, as Example 2
Method: as §1, §2, §3

[8] = Synthesis of L-tert-leucine from N-succinyl-L-tert-leucine, TLC with ninhydrin detection (Examples 2, 3); assay type: biochemical; details: 57° C., 6 hours, CoCl2, HEPES pH 7.9
Method: The above-mentioned 1 M HEPES (2.0 mL), 10 mM CoCl2 solution (0.1 mL) and 150 mM N-succinyl-L-tert-leucine (1.0 mL) were mixed with water (6.4 mL) to give a reaction reagent.
as §2, §3

[9] = Conversion of N-succinyl-L-tert-leucine to L-tert-leucine, HPLC (Example 4); assay type: biochemical; details: 1 wt % N-succinyl-L-tert-leucine, pH 7 to 8, 1 mM CoCl2, 57° C., up to 90 hours
Method: (§4) An L-succinylaminoacylase solution (1 mL; 2.3 mg/mL) was added to a 1 wt % solution of N-succinyl-L-tert-leucine (pH 7 to 8; 10 mL; containing 1 mM of CoCl2) and made to react at 57° C. for 90 hours with stirring to give L-tert-leucine. The sample was collected after 16 hours, 42 hours, 65 hours and 90 hours from the start of the reaction and subjected to an HPLC measurement under the following condition to confirm the peaks of succinyl-form compound and free-form compound whereby the synthesis of L-tert-leucine from N-succinyl-L-tert-leucine was confirmed.
Column: Inertsil ODS-2 (particle size: 5 μm; 4.6 mm inner diameter×250 mm length) manufactured by GL Science
Eluant: aqueous solution of phosphate (pH 2.3)/acetonitrile for HPLC=80:20
Column temperature: 40° C.

[10] = Synthesis of L-asparagine from N-succinyl-L-asparagine, TLC detection (Example 3); assay type: biochemical; details: TLC ninhydrin, as Example 2
Method: as §1, §2, §3

[11] = Synthesis of L-tryptophan from N-succinyl-L-tryptophan, TLC detection (Example 3); assay type: biochemical; details: TLC ninhydrin, as Example 2
Method: as §1, §2, §3

[12] = Temperature stability of the enzyme; assay type: physicochemical; details: heating treatment for 30 minutes
[13] = Conversion of N-succinyl-DL-tert-leucine to L-tert-leucine, HPLC (Example 5); assay type: biochemical; details: 1 wt % N-succinyl-DL-tert-leucine, pH 7 to 8, 1 mM CoCl2, 57° C., 90 hours, theoretically highest yield 50%
Method: as §4, with “N-succinyl-DL-tert-leucine” for “N-succinyl-L-tert-leucine”, “finishing” for “16 hours, 42 hours, 65 hours and 90 hours from the start of”, “the” for “the following”, “condition same as the Example 4” for “condition”, “confirmed. As a result, the yield was 45% or more and the value near 50% which is the theoretically highest yield was achieved.” for “confirmed.”

[14] = Synthesis of L-glutamic acid from N-succinyl-L-glutamic acid, TLC detection (Example 3); assay type: biochemical; details: TLC ninhydrin, as Example 2
Method: as §1, §2, §3

[15] = Conversion of N-succinyl-DL-tert-leucine to L-tert-leucine with N-succinylamino acid racemase, HPLC (Example 6); assay type: biochemical; details: used together with N-succinylamino acid racemase, 1 wt % N-succinyl-DL-tert-leucine, 1 mM CoCl2, 57° C., up to 90 hours
Method: An L-succinylaminoacylase solution (1 mL; 2.3 mg/mL) prepared in Example 1 and the above N-succinylamino acid racemase (0.1 mL; 10.5 mg/mL) were added to a 1 wt % solution of N-succinyl-DL-tert-leucine (pH 7 to 8; 10 mL; containing 1 mM of CoCl2) and made to react at 57° C. for 90 hours with stirring to synthesize L-tert-leucine. The sample was collected after 24 hours and 90 hours from the start of the reaction and subjected to an HPLC measurement under the condition same as Example 4 to confirm the peaks of succinyl-form compound and free-form compound whereby the synthesis of L-tert-leucine from N-succinyl-DL-tert-leucine was confirmed.

[16] = Effect of metal ion on L-succinylaminoacylase activity; assay type: biochemical; details: metal ion Co2+ versus Zn2+
[17] = Synthesis of L-4-bromophenylalanine from N-succinyl-L-4-bromophenylalanine, TLC detection (Example 3); assay type: biochemical; details: TLC ninhydrin, as Example 2
Method: as §1, §2, §3

[18] = Ability of commercially available L-aminoacylase to synthesize L-tert-leucine, TLC (Comparative Example); assay type: biochemical; details: 2,600 U/mL enzyme solution, 25° C., 12 hours; TLC ninhydrin
Method: Acylase AMANO (Sigma, code No. 01818-5G) and porcine kidney Acylase I (Sigma, code No. A3010-100MG) were dissolved in 50 mM K-phosphate buffer (pH 7.5) so as to make each of them 2,600 U/mL to give an L-aminoacylase solution.
The above-mentioned 1 M HEPES (2.0 mL), 10 mM CoCl2 solution (0.1 mL) and 150 mM N-acetyl-L-tert-leucine (1.0 mL) were mixed with water (6.4 mL) to give a reaction reagent.
The above commercially available L-aminoacylase (Comparative Example 2) (0.5 mL) was added to the reaction reagent (9.5 mL) containing the above N-acetyl-L-tert-leucine and, after the above was gently stirred, the reaction was conducted at 25° C. for 12 hours. As a control test, the same reaction was conducted by adding 50 mM K-phosphate buffer (pH 7.5) to the reagent mixture in place of the L-aminoacylase solution. After the enzymatic reaction, the L-amino acid was directly detected by TLC and ninhydrin reaction by the same manner as in Example 2.

B1: N-succinylamino acid racemase: N-succinylamino acid racemase (gene SEQ ID No: 3) derived from Geobacillus stearothermophilus NCA 1503 strain, per JP-A No. 2008-61642 (protein, listed as Geobacillus stearothermophilus)
chain: MAINIEYVILRHLQMELKAPFTTSFGTFQRKELILVEVVDRDGVSGWGESVAFSAPWYSEETVKTNWHMLEDFLVPLALAEPIHHPEELSKRFSAIRQNNMAKAALEGAVWDLYAKRLGVPLSQALGGAKKDIEVGVSIGIQPTVADLLQVIERYVAQGYRRIKVKIKPSWDVDVIREVRRVFPDVPLMADANSAYTLVDADRLKALDEFGLLMIEQPLAADDLVDHARLQPLLQTPICLDESIRSYDDARKALDLGSCRIINIKIGRVGGLGEAKRIHDLCAERGAPVWCGGMLEAGVGRAHNIAITTLENFTLPGDTAASSHYWERDIITPEVEVHGGLIRVPDAPGIGYDVDRRQVERYTQFAKVFHRTATA
modifications: CDS (1)..(1128)
With B1 the “relative activity with Co2+ as compared with Mn2+” value [1] was “twice or more higher”.

B2: L-succinylaminoacylase: L-succinylaminoacylase of NCA 1503 strain of Geobacillus stearothermophilus; amino acid sequence SEQ ID No: 2, expressed in Escherichia coli JM 109 (pLSA1) (protein, listed as Geobacillus stearothermophilus)
chain: MKEIVEQMKAELWEVFDHLHRHPEISWEEWQTTEFLRRELEREGYRVRTFADCPGVVAEIGAGPFTVGVRSDMDALWQEVNGVWQPNHACGHDAHMTIVLGVAKLLRRIGYEPPGTLRFLFQPAEEKGTGALKLIEKGAVDGVSFLYGVHLRPIQEVKGGYAAPAIIHGAAQCIEGRIRGVAAHAARPHLGVNVIEVGSAIVQELGKIHIDPQVPASIKMTKFHAGEKDANTIPGYAEFALDLRAQTNEAMERLVEGLRHVINGVAAIYGAEIELVERTRIVAAHPDPDAVRLMEEAIIAALGTEKCVPPVVTSGGEDFHFYSFQKPELKTTMLGLGCDLRPGLHHPNMTFRRDDLLSGVEILARTVINTFALQGENERVSVAANH
With B2 the “Optimum pH” value (Optimum pH of the enzyme) was 7, the “ability to synthesize L-cyclohexylglycine from N-succinyl-L-cyclohexylglycine” value [2] was “able to synthesize the corresponding L-amino acid; also recorded: reacts” and the “ability to synthesize L-valine from N-succinyl-L-valine” value [3] was “able to synthesize the corresponding L-amino acid”. The “ability to synthesize L-phenylalanine from N-succinyl-L-phenylalanine” value [4] was “able to synthesize the corresponding L-amino acid”, the “ability to synthesize L-serine from N-succinyl-L-serine” value [5] was “able to synthesize the corresponding L-amino acid” and the “activity to N-succinylamino acid relative to N-acetylamino acid” value [6] was “at least 100 fold”. The “ability to synthesize L-aspartic acid from N-succinyl-L-aspartic acid” value [7] was “able to synthesize the corresponding L-amino acid”, the “ability to produce L-tert-leucine from N-succinyl-L-tert-leucine” value [8] was “able to produce the L-tert-leucine; also recorded: able to synthesize the corresponding L-amino acid; also recorded: reacts” and the “yield (conversion rate into L-tert-leucine)” value [9] was at least 90%. The “ability to synthesize L-asparagine from N-succinyl-L-asparagine” value [10] was “able to synthesize the corresponding L-amino acid”, the “ability to synthesize L-tryptophan from N-succinyl-L-tryptophan” value [11] was “able to synthesize the corresponding L-amino acid” and the “Temperature stability: temperature at which inactivated” value [12] was at least 75 °C. For the same molecule, the “Temperature stability: temperature at which stable” value [12] was 70 °C, the “yield of L-tert-leucine” value [13] was at least 45% and the “ability to synthesize L-glutamic acid from N-succinyl-L-glutamic acid” value [14] was “able to synthesize the corresponding L-amino acid”. For the same molecule, the “yield (conversion rate into L-tert-leucine)” value [15] was “about 85%”, the “activity increase with Co2+ as compared with Zn2+” value [16] was “twice or more” and the “ability to synthesize L-4-bromophenylalanine from N-succinyl-L-4-bromophenylalanine” value [17] was “able to synthesize the corresponding L-amino acid; also recorded: reacts”.

B3: porcine kidney Acylase I: commercially available L-aminoacylase (Sigma, code No. A3010-100MG) (protein, UniProt P37111 2-407, looked up)
Aminoacylase-1: ASKGREGEHPSVTLFRQYLRIRTVQPEPDYGAAVAFLEERARQLGLGCQKVEVVPGHVVTVLTWPGTNPTLSSILLNSHTDVVPVFKEHWSHDPFEGFKDADGYIYGRGAQDMKCVSIQYLEAVRRLKVEGHHFPRTIHMTFVPDEEVGGHQGMELFVKRPEFQALRAGFALDEGLASPTDAFTVFYSERSPWWLRVTSTGKPGHGSRFIEDTAAEKLHKVINSILAFREKEKQRLQSNQLKPGAVTSVNLTMLEGGVAYNVVPATMSACFDFRVAPDVDLKAFEEQLQSWCQAAGEGVTFEFVQKWMETQVTSTDDSDPWWAAFSGVFKDMKLALELEICPASTDARYIRAAGVPALGFSPMNHTPVLLHDHDERLHEAVFLRGVDIYTQLLSALASVPALPSES
With B3 the “ability to synthesize L-tert-leucine from N-acetyl-L-tert-leucine” value [18] was “unable to synthesize L-tert-leucine”.
